Measurements: patent US20150175708A1

Tests used:
[1] = biological target: EGFR on the cell surface of human tumor cell lines (human) (UniProt P00533); assay: cell-based or functional assay
[2] = biological target: MET on the cell surface of human tumor cell lines (human) (UniProt P08581); assay: cell-based or functional assay
Chain of MET on the cell surface of human tumor cell lines (human) (P08581 25-1390): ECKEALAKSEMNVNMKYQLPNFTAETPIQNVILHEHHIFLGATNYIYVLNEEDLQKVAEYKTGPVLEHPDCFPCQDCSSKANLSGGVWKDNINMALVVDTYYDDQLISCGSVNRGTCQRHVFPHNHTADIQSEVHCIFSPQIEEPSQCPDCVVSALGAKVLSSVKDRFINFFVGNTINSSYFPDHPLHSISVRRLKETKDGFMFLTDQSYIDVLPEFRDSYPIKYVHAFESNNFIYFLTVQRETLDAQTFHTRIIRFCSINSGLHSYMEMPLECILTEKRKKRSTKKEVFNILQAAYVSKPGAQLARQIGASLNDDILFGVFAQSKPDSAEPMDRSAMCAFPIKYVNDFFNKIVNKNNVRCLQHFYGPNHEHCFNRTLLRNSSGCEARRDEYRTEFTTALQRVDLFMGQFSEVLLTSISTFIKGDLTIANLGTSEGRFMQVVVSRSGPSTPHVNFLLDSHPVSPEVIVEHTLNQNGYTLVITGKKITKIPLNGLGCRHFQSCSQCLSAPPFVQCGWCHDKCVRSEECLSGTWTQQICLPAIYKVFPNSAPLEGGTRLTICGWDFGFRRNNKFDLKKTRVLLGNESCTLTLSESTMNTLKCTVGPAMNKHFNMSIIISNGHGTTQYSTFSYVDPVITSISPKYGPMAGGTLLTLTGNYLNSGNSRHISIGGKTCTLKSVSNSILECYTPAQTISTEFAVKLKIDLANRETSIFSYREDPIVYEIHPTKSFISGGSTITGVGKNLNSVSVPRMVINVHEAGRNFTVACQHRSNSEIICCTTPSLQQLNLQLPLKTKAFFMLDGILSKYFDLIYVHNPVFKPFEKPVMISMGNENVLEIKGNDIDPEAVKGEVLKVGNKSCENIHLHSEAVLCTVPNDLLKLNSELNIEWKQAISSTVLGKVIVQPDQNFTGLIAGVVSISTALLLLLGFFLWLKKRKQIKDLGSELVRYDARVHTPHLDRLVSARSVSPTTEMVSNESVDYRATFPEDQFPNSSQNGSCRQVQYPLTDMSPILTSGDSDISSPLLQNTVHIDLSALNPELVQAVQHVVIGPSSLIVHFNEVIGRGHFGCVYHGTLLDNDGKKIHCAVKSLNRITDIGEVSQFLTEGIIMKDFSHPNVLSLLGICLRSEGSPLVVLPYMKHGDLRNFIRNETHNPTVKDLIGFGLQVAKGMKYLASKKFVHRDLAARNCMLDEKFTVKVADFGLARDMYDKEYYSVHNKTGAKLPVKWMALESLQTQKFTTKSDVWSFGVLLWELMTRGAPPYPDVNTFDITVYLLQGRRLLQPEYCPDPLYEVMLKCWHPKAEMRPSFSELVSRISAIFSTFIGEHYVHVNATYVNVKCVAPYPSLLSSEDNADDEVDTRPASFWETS

Substance: hIgG4 (antibody)
- % cell surface EGFR remaining, H441 cells, antibody 50 nM; isotype control, reference for the % [1]: 100%
- AVG of MFI (staining of cell surface EGFR), H441 cells, antibody 50 nM; isotype control, reference for the % [1]: 56.3 MFI
- % cell surface MET remaining, H441 cells, antibody 50 nM; isotype control, reference for the % [2]: 100%
- AVG of MFI (staining of cell surface MET), H441 cells, antibody 50 nM; isotype control, reference for the % [2]: 77.4 MFI
